Laboratory results as given in US11001846B2, “Aptamers, nucleic acid molecules, polynucleotides, synthetic antibodies compositions for detecting PRRS viruses and treating PRRS virus infection” (AEROVIRUS TECHNOLOGIES INC., priority 2015, dated 2021).
Entries after “also recorded” stand apart in the source; their conditions may differ.

Columns and labels:
[1] = tested on: M-S-S-GP5 peptidic complex; test: ELISA reverse screening: binding to M-S-S-GP5 peptidic complex, type 2; details: type 2 PRRSV complex
Experimental: ssDNA aptamers were denatured at 80° C. for 10 min and then cooled on ice for 10 min. Aptamers (30 nmole) were mixed with 25 μg of M-S-S-GP5 peptidic complex (further described in Example 6 below) in 500 μl selection buffer (50 mM Tris-HCl; pH 7.4, 5 mM KCl, 100 mM NaCl, 1 mM MgCl2 tRNA, 0.2% BSA) at 37° C. for 30 min. Aptamer-peptide complex was purified by adding the 25 μl Ni-NTA superflow and amplified by PCR using primers directed to the common T3 sequences in the aptamer library, and 3′-primer (i.e. -[…]-3′). SELEX was repeated 3 times, following which amplified nucleotides were transformed into E. coli. PCR conditions for SELEX included 5 min 95° C./1 min 95° C./1 min 55° C./1 min 72° C./10 min 72° C. and 100 pmole of each primer.
Selected ssDNA molecules from each individual clone were biotinylated using the B-T3 which is same sequence with 5′ primer (T3 primer), and Klenow fragment (2 unit/ml). To prepare single stranded biotin conjugated CoocSeq5 aptamer for the reverse screening, T3 Primer was Biotin labelled. A 96-well flat bottom ELISA plate was prepared by coating each well with 100 μl of streptavidin (100 μg/ml) diluted in 0.1 M NaHCO3 following by a 37° C. overnight incubation. Following several washings with PBS, wells were blocked with 200 μl of PBS containing 1% BSA for 2 hours at room temperature and subsequent washing three times with PBS-T (10 mM PBS containing 0.05% (v/v) Tween-20). […]
High binding capacity ELISA plates (Immunoplate, Nunc) were coated with 100 μl allantoic fluid containing 500 TCID50 of various PRRS virus strains diluted in phosphate buffered saline (PBS) by incubating at 4° C. overnight. […] Following this incubation period, plates were washed five times in PBS-T and bound antibodies were detected using horseradish peroxidase labelled goat anti-mouse IgG conjugates (HRP). […] Reaction was terminated with 50 μl of 2M H2SO4, plates were read with a multichannel spectrophotometer at 570 nm.

[2] = tested on: intact PRRS virus (LHVA-93-3); test: ELISA binding to intact PRRS virus; parameters: species or system PRRSV; details: vs control ssDNA or between aptamers, FIG. 8a
LHVA-3 PRRS virus = test: MTT assay, in vitro protection of PAMs or MARC-145 cells from LHVA-3 infection; assay type: cell-based, PRRSV; details: 500 pmole; LHVA-3 and NVSL; FIG. 9b
Experimental: PAMs or MARC-145 cells were plated in 96 well plates (7×10^4/well) one day prior to the assay. […] Following infection, cells were incubated in growth medium at 37° C. for 72 hours. MTT assay was performed by adding 4 mg/ml MTT (3-[4,5-Dimethylthiazol-2-yl]-2,5-diphenyltetrazolium bromide dissolved in PBS to the cell cultures and incubation at 37° C. for 3 hours. Plates were then centrifuged at 800×g for 10 min. Supernatants were aspirated and the formazan dye was dissolved in 150 μl/well of isopropyl alcohol, and O.D. values were determined with an ELISA reader at 570 nm.
In Vitro Viral Protection Prior to Viral Infection PAMs or MARC-145 cells were plated on 96 well plates (7×10^4/well) 24 hours prior to the experiment. Each well was washed twice with DPBS prior to treating the cells with various amounts of A505 (12.5 to 2000 pmole) at 37° C. for the indicated time points. […] Following incubation, cells were transferred to growth medium and incubated at 37° C. for 72 hours. Thereafter an MTT assay was implemented as described.
In Vitro Viral Protection Following Viral Infection—PAMs or MARC-145 cells were plated on 96 well plates (7×10^4/well) 24 hours prior to viral infection. Viral infection was effected as described above. Infected cells were gently washed with DPBS for 3 times. Cells were then treated with various amounts of A505 (12.5 to 2000 pmole) for 1 hour at 37° C. Following incubation, cells were transferred to growth medium and incubated at 37° C. for 72 hours. Thereafter an MTT assay was implemented as described.

LHVA-93-3 PRRS virus = test: In-vivo lung virus titer, LHVA-93-3, comparison with control oligonucleotide and Tilmicosin (Example 4); parameters: species or system swine; details: LHVA-93-3; FIG. 13b
Experimental: Swine were inoculated intranasally with sub-lethal infectious fluid containing 40TCID50/ml PRRS virus (LHVA-93-3) with or without 2.5 nmole A505 aptamer for different time intervals. Pig body weight was monitored for 2 weeks. Viral titer in the lungs was determined by the CPE titration method (OIE Terrestrial Manual—May 2015, Chapter 2.8.7—Porcine Reproductive and Respiratory Syndrome, section 1.1.3). Other pigs were sacrificed 6 days following viral inoculation and lungs were removed and homogenized in PBS 0.1% BSA (10% w/v). Following homogenization, samples were centrifuged to remove debris and stored at −80° C.
The cells/viruses were incubated for 2-5 days and observe daily for a CPE. At day 2, seed macrophages in new microtitre plates. Fifty (50) μl of the supernatants were transferred from the plates of the first passage to the corresponding wells of the freshly seeded plates (second passage). The wells were incubated for 2-5 days and observed daily for a CPE. The results of the CPE assays were presented as log TCID50.
Tilmicosin (Pulmotil®) was purchased from Eli Lilly (Elanco®), Canada.
Were implemented as described hereinabove. A dose of 15 ug/Kg of A505 was used.
The ability of the A505 aptamer to inhibit PRRSV infection was also compared to that of one of the currently available “anti-PRRSV” drugs, the antibiotic Tilmicosin. To this end, both A505 and Tilmicosin were administered once, together with the virus, using the intra-nasal route. As is shown in Table 2 below, a dose of 60 mg/pig of Tilmicosin (1 mg/kg body weight) reduced virus titer by 0.42 log TCID50, representing a 2.6-fold reduction in virus burden. This is in comparison to a reduction by 1.21 log TCID50 affected by A505 in this particular experiment (over 10 fold reduction in virus burden).

type 2 PRRSV = details: after MTT screening of 10 candidates
Description: Using various tetrazolium (MTT) colorimetric assay procedures^[xxxvi], these aptamers have been “screened” to identify the ones having the highest and fastest binding capabilities for detection and therapeutics purposes for both types of PRRSV. It should be pointed out that the aptamer having the quickest binding efficiency but not necessarily the highest binding strength is the most suitable one for the biosensor.

B1: A508: ssDNA aptamer binding type 2 PRRSV M-S-S-GP5 complex (nucleic acid)
DNA: GGGCGACCCTGAAGAGACTGGTGAGTTAATGTTTTTTCTTAGCCTTGTATCGAAACGGTGAAAGCCGTAGGTTGCCC
modifications: DNA, backbone and methylation of C not given here
[1]
  binding to the M-S-S-GP5 complex/heterodimer: highly significant differences from the control ssDNA; also recorded: binding capacity to the M-S-S-GP5 complex; also recorded: found to bind the M-S-S-GP5 heterodimer
[2]
  binding level to the intact virus: significant binding
LHVA-3 PRRS virus
  in-vitro infectivity of the viruses / cell mortality: capable of reducing the in-vitro infectivity of the viruses
LHVA-93-3 PRRS virus
  change in lung virus titer: less effective than A505 was still capable of reducing the lung virus titer
Type 2 PRRSV
  binding capabilities from biosensing and therapeutic perspectives: highest binding capabilities
